The values below come from paper PMC13577001, “Crystal structures of the μ2 subunit of clathrin-adaptor protein 2 in complex with peptides derived from human papillomavirus 16 E7” (The Journal of Microbiology, 2025).

Assay [1] deals with T1, AP2-μ2 (μ2 subunit of clathrin-adaptor protein 2, residues 158–435) (Rattus norvegicus, UniProt P84092).
T1 construct: recombinant AP2-μ2 protein (residues 158–435) expressed in E. coli; made in house; host or cells: Escherichia coli BL21(DE3) RIL
T1 sequence (P84092 158-435): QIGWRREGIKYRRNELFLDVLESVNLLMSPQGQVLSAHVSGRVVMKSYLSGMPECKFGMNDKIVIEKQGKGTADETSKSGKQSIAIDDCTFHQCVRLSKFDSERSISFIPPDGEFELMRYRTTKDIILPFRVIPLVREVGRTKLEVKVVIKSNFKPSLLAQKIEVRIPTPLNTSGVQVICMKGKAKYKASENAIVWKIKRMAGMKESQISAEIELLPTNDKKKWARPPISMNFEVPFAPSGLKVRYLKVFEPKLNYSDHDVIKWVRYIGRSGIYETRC
Nature of the assay: ITC binding of HPV E7-derived synthetic peptides to recombinant wild-type AP2-μ2. The conditions noted are these: for binding to AP2-μ2 in ITC (result in words): peptide titrated into wild-type recombinant AP2-μ2. Here is the method:
A DNA fragment encoding residues 158–435 of the μ2 subunit of rat AP2 was cloned into a modified pET28a plasmid (Novagen, USA) to produce a recombinant protein tagged with (His)10−maltose-binding protein. The recombinant protein was expressed in Escherichia coli BL21(DE3) RIL cells (Novagen) grown in Luria-Bertani medium at 18°C for 16 h following induction with 0.5 mM isopropyl β-D-thiogalactopyranoside. Proteins were purified using Ni-NTA affinity chromatography (QIAGEN, Germany), followed by size-exclusion chromatography on a HiLoad 26/600 Superdex 200 prep grade column (Cytiva, USA). The (His)10−maltose-binding protein tag was cleaved by TEV protease and removed during subsequent purification steps. Final protein samples were equilibrated in a buffer containing 50 mM Tris-HCl (pH 7.5), 500 mM NaCl, and 3 mM β-mercaptoethanol. […] Crystals were obtained using the sitting-drop vapor diffusion method at 18°C by from a mixture of 1 μl protein solution (10 mg/ml) and 1 μl precipitant solution. […] X-ray diffraction data were collected at beamlines 5C and 7A of the Pohang Accelerator Laboratory (Korea) and processed using HKL2000 ([Otwinowski and Minor, 1997]). Molecular replacement was performed using Phaser ([McCoy et al., 2007]) with the structure of AP2-μ2 complexed with a PIP5KIγ-derived peptide (Protein Data Bank [PDB] code: 3H85) used as the search model ([Kahlfeldt et al., 2010]). Model building and refinement were performed using Coot ([Emsley and Cowtan, 2004]) and PHENIX ([Adams et al., 2010]), respectively.
Recombinant AP2-μ2 protein harboring R402A∙K405A mutations was prepared and purified using the same protocol as that used for the wild-type protein. […] All peptides were dialyzed against the same buffer used for AP2-μ2 purification. Isothermal titration calorimetry (ITC) was performed using recombinant AP2-μ2 proteins and synthetic peptides as previously described ([Jung et al., 2023]; [Lim et al., 2021]).
Fig. 2. ITC analysis of the effect of the Y-x-x-Φ motif on complex formation. Each peptide (0.2 mM) was titrated into 10 μM recombinant AP2-μ2 as indicated. KD and Ka values were deduced from curve fitting of the integrated heat per mole of added ligand. Mutated residues are highlighted in blue.
Fig. 3. ITC analysis of the effect of the acidic cluster region on complex formation. Each peptide was titrated into wild-type (A) or R402A∙K405A mutant (B) recombinant AP2-μ2 as indicated. KD and Ka values were obtained by curve-fitting of the integrated heat per mole of added ligand. Mutated residues are highlighted in blue. […] Negatively charged cluster residues are marked in red.

For assay [2], the target named is integrin α4 (Homo sapiens). As to the kind of experiment: ITC. The conditions noted are these: cited from earlier work.
The next assay deals with PIP5KIγ (Homo sapiens). As to the kind of experiment: ITC. The conditions noted are these: cited from earlier work.
Assay [3] concerns the target T2, AP2-μ2 (residues 158–435) R402A∙K405A mutant (rat, UniProt P84092 158-435, R402A | K405A).
T2 construct: also called R402A∙K405A mutant recombinant AP2-μ2; source: E. coli, purified by the same protocol as the wild-type protein
T2 sequence: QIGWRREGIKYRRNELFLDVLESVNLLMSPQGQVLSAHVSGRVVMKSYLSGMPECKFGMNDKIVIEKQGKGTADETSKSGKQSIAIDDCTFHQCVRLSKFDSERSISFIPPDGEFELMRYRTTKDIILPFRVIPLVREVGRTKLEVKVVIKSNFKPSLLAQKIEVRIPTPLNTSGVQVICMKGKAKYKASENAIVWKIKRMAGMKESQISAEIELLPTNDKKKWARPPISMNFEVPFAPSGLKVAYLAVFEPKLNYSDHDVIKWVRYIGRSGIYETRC
Nature of the assay: ITC; peptide titrated into recombinant AP2-μ2; 50 mM Tris-HCl (pH 7.5), 500 mM NaCl, 3 mM β-mercaptoethanol; in Fig. 2 peptide 0.2 mM into 10 μM AP2-μ2. The conditions noted are these: both partners purified.

The target in assay [4] is T3, μ2 subunit of clathrin-adaptor protein 2 (AP2-μ2), residues 158–435, wild type (rat, UniProt P84092 158-435).
T3 construct: also called recombinant AP2-μ2; μ2 subunit of rat AP2; source: E. coli BL21(DE3) RIL, purified (Ni-NTA, SEC)
T3 sequence (looked up): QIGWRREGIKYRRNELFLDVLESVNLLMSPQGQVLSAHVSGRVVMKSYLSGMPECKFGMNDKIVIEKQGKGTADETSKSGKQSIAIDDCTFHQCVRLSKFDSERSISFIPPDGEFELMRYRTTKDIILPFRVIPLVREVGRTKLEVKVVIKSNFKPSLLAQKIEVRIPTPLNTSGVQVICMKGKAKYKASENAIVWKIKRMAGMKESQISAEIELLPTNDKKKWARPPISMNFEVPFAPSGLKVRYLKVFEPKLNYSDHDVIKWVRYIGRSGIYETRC
The assay is described as above. The conditions noted are these: both partners purified.

In assay [5] the target is T4, μ2 subunit of clathrin-adaptor protein 2 (AP2-μ2), residues 158–435, wild type (rat, UniProt P84092 158-435).
T4 chain: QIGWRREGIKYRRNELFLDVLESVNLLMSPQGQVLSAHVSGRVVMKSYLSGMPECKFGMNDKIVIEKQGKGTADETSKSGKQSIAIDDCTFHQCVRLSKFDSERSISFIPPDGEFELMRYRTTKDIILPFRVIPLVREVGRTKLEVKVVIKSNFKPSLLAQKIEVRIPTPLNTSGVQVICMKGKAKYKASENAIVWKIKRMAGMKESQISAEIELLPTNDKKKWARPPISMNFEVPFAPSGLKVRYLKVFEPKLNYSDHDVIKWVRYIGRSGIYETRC
As to the kind of experiment: ITC.

Assay [6] addresses T4, μ2 subunit of clathrin-adaptor protein …. Nature of the assay: ITC.

Where two headings read alike, the source gives them in different places. No end group written: not given here.

For the molecule “Y25N: 11-mer HPV16 E7 residues 22–32 synthetic peptide with Y25N mutation (LYCNEQLNDSS)”, the “binding to AP2-μ2 in ITC (result in words)” value (from here on “binding to AP2-μ2 in ITC”) in assay [1] is on record as “severely impaired”. On to “residues 25–42 of HPV18 E7: 18-mer peptide lacking the Y-x-x-Φ motif, residues 25–42 of HPV18 E7 (LLCHEQLSDSEEENDEID; UniProt P06788 25-42, looked up, fragment)”, for which the “binding to AP2-μ2 in ITC” value in assay [1] is reported as “did not bind”. AP2-μ2 (from UniProt Q96CW1): the Kd was 72 µM in assay [2] and 6 µM with PIP5KIγ (Homo sapiens).

“Y25H: 11-mer HPV16 E7 residues 22–32 synthetic peptide with Y25H mutation (LYCHEQLNDSS)”: the “binding to AP2-μ2 in ITC” value in assay [1] is listed as “severely impaired”. Consider “L28A: 11-mer HPV16 E7 residues 22–32 synthetic peptide with L28A mutation (LYCYEQANDSS)”, for which, in assay [1], the “binding to AP2-μ2 in ITC” value is “severely impaired”. As to LHCYEELSEEETEEEPRF [HPV15 E7(24–41)], in assay [1], the Kd turned out to be 13.3 µM.

B1: HPV16 E7(16–32; S31E∙S32E) 17-mer peptide (peptide)
peptide: QPETTDLYCYEQLNDEE
notes: source: synthetic peptide, bought: Dandicure (Korea)
Turning to B1, the Kd in assay [3] was 8.26 µM; in assay [4], 1.64 µM.

B2: HPV16 E7(22–32; S31E∙S32E) 11-mer phosphomimetic peptide (peptide)
peptide: LYCYEQLNDEE
notes: also called 11-mer phosphomimetic mutant HPV16 E7 peptide; source: synthetic peptide, bought: Dandicure (Korea)
For the molecule B2, in assay [4], the Kd worked out at 1.54 µM.

B3: HPV16 E7(22–32) wild-type 11-mer peptide (peptide)
peptide: LYCYEQLNDSS
notes: as for B1
Regarding B3, the Ka in assay [5] was 170000 M⁻¹. Moreover, the Kd in assay [4] is 5.88 µM.

B4: HPV16 E7(22–39) wild-type 18-mer peptide (peptide)
peptide: LYCYEQLNDSSEEEDEID
notes: HPV16 E7 residues 22–39; source: synthetic peptide, bought: Dandicure (Korea)
In turn, B4 showed a Ka in assay [6] of 299000 M⁻¹. Also, in assay [4], the dissociation constant Kd is 3.34 µM.

B5: HPV16 E7(22–39; S31E∙S32E) 18-mer phosphomimetic peptide (peptide)
peptide: LYCYEQLNDEEEEEDEID
notes: HPV16 E7 residues 22–39 with S31E and S32E; source: synthetic peptide, bought: Dandicure (Korea)
Consider B5, for which, in assay [4], the Kd was 2.34 µM.
